Results: the supplement of paper PMC9112550, “Optimization of the antimicrobial peptide Bac7 by deep mutational scanning” (BMC Biology, 2022)

The sequences below were run on Escherichia coli TOP10 (assay: shrunken log2 fold change of peptide-encoding DNA abundance (4.5 h post-induction vs induction); higher = less antimicrobial activity (less host growth inhibition)). Conditions: time post-induction: 4.5 h; library: site-saturation at positions 5, 18, 19, 20.
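Also: peptides expressed intracellularly from a pBAD plasmid library in pooled LB shake-flask culture, induced with 0.3% L-arabinose, DNA abundance read by NGS, three biological replicates, DESeq2 with apeglm shrinkage.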

Sequence	shrunken log2 fold change
RRIRFRPPRLPRPRPRPVAEPRP	0.256
RRIRCRPPRLPRPRPRPDQNPRP	-0.138
RRIRRRPPRLPRPRPRPKNSPRP	-0.0537
RRIRERPPRLPRPRPRPKVLPRP	0.0059
RRIRYRPPRLPRPRPRPYISPRP	-0.00213
RRIRARPPRLPRPRPRPMSFPRP	-0.0283
RRIRARPPRLPRPRPRPFECPRP	-0.00737
RRIRSRPPRLPRPRPRPTMAPRP	0.173
RRIRWRPPRLPRPRPRPPRDPRP	0.661
RRIRHRPPRLPRPRPRPCNGPRP	-0.00865
RRIRQRPPRLPRPRPRPWPCPRP	-0.0164
RRIRRRPPRLPRPRPRPYWYPRP	-0.423
RRIRARPPRLPRPRPRPMKLPRP	0.0594
RRIRLRPPRLPRPRPRPGGIPRP	-0.0154
RRIRSRPPRLPRPRPRPYRGPRP	-0.131
RRIRMRPPRLPRPRPRPDYLPRP	-0.051
RRIRRRPPRLPRPRPRPREPPRP	1.04
RRIRTRPPRLPRPRPRPIFKPRP	-0.128
RRIRERPPRLPRPRPRPYLFPRP	-0.137
RRIRCRPPRLPRPRPRPCNGPRP	-0.00386

Sequence	shrunken log2 fold change
RRIRSRPPRLPRPRPRPYMSPRP	-0.355
RRIRKRPPRLPRPRPRPSPPPRP	0.305
RRIRMRPPRLPRPRPRPRRPPRP	1.16
RRIRVRPPRLPRPRPRPSWSPRP	0.0478
RRIRYRPPRLPRPRPRPYRHPRP	-1.4
RRIRQRPPRLPRPRPRPCNNPRP	-0.255
RRIRPRPPRLPRPRPRPYNFPRP	-0.289
RRIRIRPPRLPRPRPRPMDKPRP	-0.448
RRIRLRPPRLPRPRPRPPNGPRP	-0.0536
RRIRWRPPRLPRPRPRPGFGPRP	0.651
RRIRLRPPRLPRPRPRPDACPRP	0.252
RRIRNRPPRLPRPRPRPNFYPRP	-0.225
RRIRGRPPRLPRPRPRPQVAPRP	0.34
RRIRGRPPRLPRPRPRPPMKPRP	0.138
RRIRWRPPRLPRPRPRPKCDPRP	0.033
RRIRDRPPRLPRPRPRPFWEPRP	0.272
RRIRWRPPRLPRPRPRPCQCPRP	-0.000687
RRIRNRPPRLPRPRPRPFPNPRP	-0.33
RRIRMRPPRLPRPRPRPLRIPRP	1.06
RRIRRRPPRLPRPRPRPQSGPRP	0.121

Sequence	shrunken log2 fold change
RRIRNRPPRLPRPRPRPNPCPRP	-0.1
RRIRARPPRLPRPRPRPTPMPRP	0.528
RRIRERPPRLPRPRPRPEMNPRP	0.0387
RRIRYRPPRLPRPRPRPRDCPRP	-0.137
RRIRLRPPRLPRPRPRPATEPRP	0.149
RRIRLRPPRLPRPRPRPPKWPRP	0.532
RRIRARPPRLPRPRPRPGLCPRP	0.553
RRIRNRPPRLPRPRPRPIYCPRP	-0.858
RRIRWRPPRLPRPRPRPYQGPRP	-0.0161
RRIRMRPPRLPRPRPRPHIHPRP	-0.111
RRIRNRPPRLPRPRPRPTYAPRP	0.027
RRIRCRPPRLPRPRPRPSHWPRP	-0.204
RRIRPRPPRLPRPRPRPGGHPRP	0.372
RRIRCRPPRLPRPRPRPWAGPRP	0.124
RRIRMRPPRLPRPRPRPQGEPRP	-0.0117
RRIRYRPPRLPRPRPRPAHRPRP	0.0479
RRIRLRPPRLPRPRPRPGTLPRP	0.0174
RRIRWRPPRLPRPRPRPSFNPRP	-0.365
RRIRIRPPRLPRPRPRPGWCPRP	-0.082
RRIRIRPPRLPRPRPRPFSLPRP	-1.26
